Measured values as given in publication PMC11570452, “MOTS-c modulates skeletal muscle function by directly binding and activating CK2” (iScience, 2024).

B1: K14Q MOTS-c (naturally occurring MOTS-c variant) (peptide, UniProt A0A0C5B5G6 1-16, looked up)
peptide: MRWQEMGYIFYPRQLR
notes: MOTS-c, human, natural variant m.1382A>C causing K14Q; source: synthetic peptide, bought: GenScript
B2: MOTS-c (mitochondrial open reading frame of the 12S ribosomal RNA type-c), wild type (peptide)
peptide: MRWQEMGYIFYPRKLR
notes: MOTS-c, human, 16-amino acid microprotein encoded in the mitochondrial 12S rRNA region; also called WT MOTS-c; synthetic MOTS-c; source: synthetic peptide, bought: GenScript; for the co-IP injected into mice (7.5 mg/kg) and found in tissue lysate

Biological target: T1, CK2α (recombinant, GenScript) (UniProt P68400 1-391)
T1 construct: CK2α, catalytic alpha subunit of casein kinase II; No catalogue number, species or construct is printed; also called CK2α subunit; CK2 alpha; source: bought: GenScript
Assay: SPR; Biacore T200; MOTS-c or K14Q MOTS-c (10 μg/mL, 10 mM sodium acetate pH 5.0) immobilised on CM5 chip (278 RU and 193 RU); first 70 nM CK2α or CK2β, then CK2α at 2.5, 5.0, 10 and 20 nM flowed at 30 μL/min in 0.01 M HEPES, 0.15 M NaCl, 0.3 mM EDTA, 0.05% tween
Settings: both partners purified

T1 sequence (P68400 whole entry): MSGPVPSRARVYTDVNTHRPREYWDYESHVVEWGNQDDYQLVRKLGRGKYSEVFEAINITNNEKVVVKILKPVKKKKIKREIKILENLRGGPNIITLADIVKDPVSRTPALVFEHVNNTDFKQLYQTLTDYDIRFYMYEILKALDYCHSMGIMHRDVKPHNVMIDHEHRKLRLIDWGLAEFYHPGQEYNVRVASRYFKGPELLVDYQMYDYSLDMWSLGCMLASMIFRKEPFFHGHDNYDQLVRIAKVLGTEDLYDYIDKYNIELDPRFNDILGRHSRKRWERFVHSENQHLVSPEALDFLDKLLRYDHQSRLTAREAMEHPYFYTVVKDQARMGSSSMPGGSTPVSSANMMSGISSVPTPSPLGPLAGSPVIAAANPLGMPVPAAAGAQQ

Row | Kd [nM] | Binder
1 | 16.2 | B1
2 | 1 | B2
